According to patent US20120065254:

Columns and labels:
[1] = biological target: human complement C5 in serum (Homo sapiens) (UniProt P01031+P01031); assay: cell_activity; conditions: 2'-F pyrimidines and 2'-OMe purines as printed, CGCU unmodified; complement-dependent sheep erythrocyte hemolysis
[2] = biological target: T1, human C5a (L-form) (Homo sapiens) (UniProt P01031); assay: SPR; conditions: L-RNA [all (L-RNA)]; 37 C, Mg, Ca
T1 sequence: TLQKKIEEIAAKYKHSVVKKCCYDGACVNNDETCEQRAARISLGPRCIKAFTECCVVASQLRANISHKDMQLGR

human complement C5 in serum (Homo sapiens), sequence (P01031 19-673 T389I, one chain of several): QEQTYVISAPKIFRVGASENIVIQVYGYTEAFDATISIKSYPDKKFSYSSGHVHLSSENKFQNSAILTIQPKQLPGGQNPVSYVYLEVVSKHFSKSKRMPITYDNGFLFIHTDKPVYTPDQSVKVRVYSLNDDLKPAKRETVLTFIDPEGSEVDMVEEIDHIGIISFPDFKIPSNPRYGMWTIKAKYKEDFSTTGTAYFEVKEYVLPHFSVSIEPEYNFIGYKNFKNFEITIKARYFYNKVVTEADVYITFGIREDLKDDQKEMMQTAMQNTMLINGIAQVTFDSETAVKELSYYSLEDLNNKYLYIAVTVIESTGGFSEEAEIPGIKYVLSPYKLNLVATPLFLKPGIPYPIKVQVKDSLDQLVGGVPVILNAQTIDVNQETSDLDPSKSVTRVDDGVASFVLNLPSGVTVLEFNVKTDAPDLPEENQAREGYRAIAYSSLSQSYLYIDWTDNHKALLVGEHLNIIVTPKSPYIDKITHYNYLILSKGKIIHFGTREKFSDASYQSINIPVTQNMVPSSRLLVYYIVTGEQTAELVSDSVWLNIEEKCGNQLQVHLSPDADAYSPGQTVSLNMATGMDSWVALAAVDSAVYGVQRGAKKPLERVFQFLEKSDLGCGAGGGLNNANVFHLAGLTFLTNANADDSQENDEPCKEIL

Substance | IC50 [1] [µM] | Kd [2] [µM]
C5C6 aptamer | 1 | –
UGCUGGACAGGACCAAGGUAAGGGCGGACCGAAAAACCUAGCAGCA [182-A5-002] | – | 0.0003
